Source: patent US6329339A, “Pharmaceutical antiviral composition comprising glycyrrhizic acid and at least one protein endowed with antiviral activity” (priority 1997, dated 2001)

B1: Human lactoferrin: human lactoferrin; lactoferrin supplied by SIGMA (protein, UniProt P02788 20-710, looked up)
Lactotransferrin: GRRRSVQWCAVSQPEATKCFQWQRNMRKVRGPPVSCIKRDSPIQCIQAIAENRADAVTLDGGFIYEAGLAPYKLRPVAAEVYGTERQPRTHYYAVAVVKKGGSFQLNELQGLKSCHTGLRRTAGWNVPIGTLRPFLNWTGPPEPIEAAVARFFSASCVPGADKGQFPNLCRLCAGTGENKCAFSSQEPYFSYSGAFKCLRDGAGDVAFIRESTVFEDLSDEAERDEYELLCPDNTRKPVDKFKDCHLARVPSHAVVARSVNGKEDAIWNLLRQAQEKFGKDKSPKFQLFGSPSGQKDLLFKDSAIGFSRVPPRIDSGLYLGSGYFTAIQNLRKSEEEVAARRARVVWCAVGEQELRKCNQWSGLSEGSVTCSSASTTEDCIALVLKGEADAMSLDGGYVYTAGKCGLVPVLAENYKSQQSSDPDPNCVDRPVEGYLAVAVVRRSDTSLTWNSVKGKKSCHTAVDRTAGWNIPMGLLFNQTGSCKFDEYFSQSCAPGSDPRSNLCALCIGDEQGENKCVPNSNERYYGYTGAFRCLAENAGDVAFVKDVTVLQNTDGNNNEAWAKDLKLADFALLCLDGKRKPVTEARSCHLAMAPNHAVVSRMDKVERLKQVLLHQQAKFGRNGSDCPDKFCLFQSETKNLLFNDNTECLARLHGKTTYEKYLGPQYVAGITNLKKCSTSPLLEACEFLRK
B2: human lysozyme: human lysozyme (protein, UniProt P61626 19-148, looked up)
Lysozyme C: KVFERCELARTLKRLGMDGYRGISLANWMCLAKWESGYNTRATNYNAGDRSTDYGIFQINSRYWCNDGKTPGAVNACHLSCSALLQDNIADAVACAKRVVRDPQGIRAWVAWRNRCQNRDVRQYVQGCGV
B3: Bovine lactoferrin: bovine lactoferrin; lactoferrin supplied by SIGMA (protein, UniProt P24627 20-708, looked up)
Lactotransferrin: APRKNVRWCTISQPEWFKCRRWQWRMKKLGAPSITCVRRAFALECIRAIAEKKADAVTLDGGMVFEAGRDPYKLRPVAAEIYGTKESPQTHYYAVAVVKKGSNFQLDQLQGRKSCHTGLGRSAGWIIPMGILRPYLSWTESLEPLQGAVAKFFSASCVPCIDRQAYPNLCQLCKGEGENQCACSSREPYFGYSGAFKCLQDGAGDVAFVKETTVFENLPEKADRDQYELLCLNNSRAPVDAFKECHLAQVPSHAVVARSVDGKEDLIWKLLSKAQEKFGKNKSRSFQLFGSPPGQRDLLFKDSALGFLRIPSKVDSALYLGSRYLTTLKNLRETAEEVKARYTRVVWCAVGPEEQKKCQQWSQQSGQNVTCATASTTDDCIVLVLKGEADALNLDGGYIYTAGKCGLVPVLAENRKSSKHSSLDCVLRPTEGYLAVAVVKKANEGLTWNSLKDKKSCHTAVDRTAGWNIPMGLIVNQTGSCAFDEFFSQSCAPGADPKSRLCALCAGDDQGLDKCVPNSKEKYYGYTGAFRCLAEDVGDVAFVKNDTVWENTNGESTADWAKNLNREDFRLLCLDGTRKPVTEAQSCHLAVAPNHAVVSRSDRAAHVKQVLLHQQALFGKNGKNCPDKFCLFKSETKNLLFNDNTECLAKLGGRPTYEEYLGTEYVTAIANLKKCSTSPLLEACAFLTR
B4: turkey lysozyme: turkey lysozyme (protein, UniProt P00703 19-147, looked up)
Lysozyme C: KVYGRCELAAAMKRLGLDNYRGYSLGNWVCAAKFESNFNTHATNRNTDGSTDYGILQINSRWWCNDGRTPGSKNLCNIPCSALLSSDITASVNCAKKIASGGNGMNAWVAWRNRCKGTDVHAWIRGCRL

Columns and labels:
[1] = test system: HSV1; test: Inhibition of HSV1 viral plaques on VERO cells; type: cell-based, Herpes Simplex Virus type 1; conditions: for MDI50 (dose inhibiting 50% of the viral plaques on VERO cells): HSV1; for Inhibition (%) of viral plaques with various lysozymes: percentage of the control ± standard deviation
[2] = test system: VERO cells; test: Toxicity expressed as a minimum toxic dose on 50% of the cells; type: cell-based, African green monkey
Experimental: It was carried out as Example 1 except that different amounts of bovine and human lactoferrin were added to the single layers of VERO cells infected with HSV1.
*Toxicity expressed as a minimum toxic dose on 50% of the cells.

[3] = test system: HSV1; conditions: Current Microbiology 1984; cited from earlier work

Row | Molecule | MDI50 (dose inhibiting 50% of the viral plaques on VERO cells) [1] | MTD50 (minimum toxic dose on 50% of the cells) [2] | antiviral / anti-herpetic (HSV1) activity of lysozymes [3] | Inhibition (%) of viral plaques with various lysozymes ([1]; 0.5 mg/ml) | Inhibition (%) of viral plaques with various lysozymes ([1]; 1 mg/ml) | Inhibition (%) of viral plaques with various lysozymes ([1]; 2 mg/ml) | Inhibition (%) of viral plaques with various lysozymes ([1]; 4 mg/ml) | Inhibition (%) of viral plaques with various lysozymes ([1]; 6 mg/ml) | Inhibition (%) of viral plaques with various lysozymes ([1]; 8 mg/ml)
1 | B1 | 0.25 mg/mL | 3 mg/mL |  |  |  |  |  |  | 
2 | B2 |  |  | anti-herpetic (HSV1) activity | 18 ± 3% | 45 ± 3% | 59 ± 4% | 70 ± 4% | 79 ± 6% | 90 ± 5%
3 | B3 | 0.25 mg/mL | 2 mg/mL |  |  |  |  |  |  | 
4 | B4 |  |  | anti-herpetic (HSV1) activity | 10 ± 3% | 45 ± 5% | 55 ± 6% | 68 ± 5% | 80 ± 4% | 89 ± 5%
